Reference: patent publication US11912781B2, “Humanized complement 5A receptor 1 antibodies and methods of use thereof” (VISTERRA, INC., priority 2021, dated 2024)

Key:
C5aR1 [1] = target: T1, C5aR1 (Homo sapiens, UniProt P21730); test: β-arrestin2 recruitment, two-subunit luciferase reporter; format: cell-based; set-up: expressed in transfected cells
T1 sequence (P21730 1-350): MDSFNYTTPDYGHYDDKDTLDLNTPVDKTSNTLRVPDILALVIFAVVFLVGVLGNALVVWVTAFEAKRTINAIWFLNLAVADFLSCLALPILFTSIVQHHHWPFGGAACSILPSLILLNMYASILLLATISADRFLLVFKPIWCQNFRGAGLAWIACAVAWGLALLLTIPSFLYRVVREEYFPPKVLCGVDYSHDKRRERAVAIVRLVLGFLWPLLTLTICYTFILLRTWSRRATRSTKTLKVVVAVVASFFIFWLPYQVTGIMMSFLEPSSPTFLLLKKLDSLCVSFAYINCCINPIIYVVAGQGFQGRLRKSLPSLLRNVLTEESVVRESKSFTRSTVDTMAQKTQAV
Excerpt: The β-arrestin assay utilized a proprietary two-subunit luciferase reporter system: one subunit is fused to C5aR1 and one subunit is fused to β-arrestin2. When in close proximity, the two subunits formed an enzyme that generates a luminescent signal, used as a proxy for C5aR1-mediated recruitment of β-arrestin2.
The experimental details of this determining β-arrestin recruitment are described in Example 6. […] Table 14 summarizes the […] of inhibition of β-arrestin recruitment.

CD11b = test: Inhibition of CD11b expression in neutrophils; format: cell-based, human; settings: range of C5a concentrations
Excerpt: CD11b, an integrin receptor, is mobilized to the surface of neutrophils in response to C5a activation and mediates intravascular crawling prior to neutrophil transmigration. CD11 is involved in numerous adhesion-related associations between cells such as monocytes, macrophages, natural killer (NK) cells, and granulocytes.
The experimental details of this determining CD11 expression are described in Example 5.

C5aR1 [2] = target: T1, C5aR1; test: GeneBLAzer assay, inhibition of Gα signaling; format: cell-based
Procedure: The GeneBLAzer assay kit and C5aR1 cell line were commercially available from Thermo Fisher (Catalog #K1544). The assay was performed as recommend by the manufacturer. Briefly, antibodies or antagonists were incubated for 30 minutes at increasing concentrations at 37° C. C5a was then added to the cells and incubated at 37° C. for an additional 4-5 hours. Beta-lactamase substrate was then added and incubated for 2 hours at room temperature. Fluorescent measurements for each well with an excitation/emission of 409/460 (blue) and 409/530 (green) were measured. An increase in the blue to green ratio was proportional to C5aR1 activation and was used to calculate the percent of activation for the cells in each well. The C5aR1 activation profile was monitored under increasing antagonist concentration. The IC50 was determined by plotting the percentage of signal against concentration of the antagonist.
This experiment was done as detailed in Example 2.

squirrel monkeys = test: C5a-induced neutropenia in squirrel monkeys; format: in vivo, squirrel monkey; settings: antibody 10 mg/kg or avacopan 30 mg/kg IV 1 h before 0.1 mg/kg human C5a, 1 min post-C5a
Procedure: Briefly, three groups of squirrel monkeys were evaluated for inhibition of neutropenia. In the first group, 8 squirrel monkeys were injected with PBS (vehicle), intravenously. In the second group 8 squirrel monkeys were injected with exemplary antibodies at a dose of 10 mg/kg, intravenously. In the third group, group 8 squirrel monkeys were injected with avacopan at a dose of 30 mg/kg, intravenously. One hour after injection of the PBS, exemplary antibodies or avacopan, 0.1 mg/kg of human C5a was injected into the squirrel monkeys. The blood was collected after 1 min, 5 min 15 min, 2 hr and 6 hr after injection of human C5a. The percent change in neutrophils and average change in neutrophils were calculated in all three groups and are shown in FIG. 14B, as scatter plot.

U937-C5aR1 cells = test: Binding to U937-C5aR1 cells; settings: two antibody preparations
human neutrophils = test: Binding to human neutrophils; settings: two antibody preparations
tMCAO mice = test: tMCAO stroke mouse model, infarct volume; format: in vivo; settings: antibodies 20 mg/kg, PMX53 1 mg/kg
Procedure: 1 mg/kg PMX53 was used as a control. The brain was resected, cut into slices and stained with TTC. The stained cross sections were analyzed by imaging.

[3] = Pharmacokinetics in Tg32 mice; format: in vivo, mouse; settings: 5 mg/kg IV
Procedure: (§1) 5 mg/kg of exemplary monospecific and biparatopic antibodies were injected intravenously into Tg32 mice. The amount of the antibody in the serum was evaluated over a period of 500 hours. […] FIG. 16B-16D show the stability of the anti-C5aR1 antibodies in the serum of 5 different mice for 500 hours. […] The tetravalent antibodies have slightly lower persistence in serum as compared to the monospecific antibody. Motavizumab was used as a control.
Tg32 mice are a transgenic model in which human FcRn replaces native mouse FcRn. FcRn is necessary for the bidirectional transport of Abs across cellular barriers, influencing PK. Tg32 mice with human FcRn have been extensively studied and thought to correlate with PK in humans. The goal of this experiment was to assess FcRn-mediated recycling of IgG-scFv vs IgG formats and assess any impact of introducing Fc domain modifications on FcRn mediated recycling.
5 mg/kg of exemplary monospecific and biparatopic antibodies were injected intravenously into Tg32 mice. The percentage of antibody in the serum was determined using art-recognized assays. MVZ-IgG4-VFc17, a motavizumab antibody with IgG4 Fc and same Fc modifications as the C5aR1 antibodies, was used as a control. Further PK/PD analyses were carried out using CERTARA.

[4] = Pharmacokinetics in human C5aR1 knock-in mice; format: in vivo, mouse; settings: hC5aR1 mice, 20 mg/kg
Procedure: as §1
Target-Mediated Drug Disposition (TMDD) is evident for both exemplary C5aR1 antibodies with modified Fc domains. TMDD is the phenomenon in which a drug binds with high affinity to its pharmacological target site (such as a receptor) to such an extent that this affects its pharmacokinetic (PK) characteristics. The target binding and subsequent elimination of the drug-target complexes could affect both drug distribution and elimination, and result in nonlinearity of PK in a dose-dependent manner.
The target binding and subsequent elimination of the drug-target complexes could affect both drug distribution and elimination, and result in nonlinearity of PK in a dose-dependent manner. FIG. 30A-30F show antibody persistence was dose-dependent. […] FIG. 30F is in silico graphical representation of isotype control antibody over a period of 500 hours at a concentration of 20 mg/Kg. Non-naïve mice were administered multiple dosing of the mAbs once weekly over 4 total weeks.

C5aR1 [5] = target: T1, C5aR1; test: Binding kinetics and internalization with or without sodium azide; settings: with or without 20 mM sodium azide
Procedure: The Example seeks to verify that the internalization of the C5aR1 antibodies is specific and not due to non-specific clustering of the membrane immunoglobulin. Sodium azide is a metabolic inhibitor, and inhibits internalization or endocytosis as these are energy dependent processes. Any metabolic dependency on the internalization of exemplary C5aR1 antibodies were probed using 10 nM C5aR1 antibodies in the presence or absence of 20 mM sodium azide.

Q: Which IC50 (C5aR1 [1]; 10 nM C5a, Table 9, read-out: IC50 for β-arrestin signaling) does the source give for `Cc1ccc(NC(=O)[C@H]2CCCN(C(=O)c3c(C)cccc3F)[C@H]2c2ccc(NC3CCCC3)cc2)cc1C(F)(F)F` [Avacopan] here?
A: 9.95 nM

Q: What about the IC50 (C5aR1 [1]; 100 nM C5a, Table 9, read-out: IC50 for β-arrestin signaling) of the same molecule?
A: 3.25 nM

Q: What about the “potency in β-arrestin2 recruitment as C5a increases” value (C5aR1 [1]; C5a concentrations increase to 10 nM) of the same molecule?
A: lost potency

Q: And the IC50 (C5aR1 [1]; read-out: IC50 (nM) at 100 nM C5a, beta-arrestin inhibition, 100 nM C5a, Table 14)?
A: 34 nM

Q: And the “inhibition of CD11b expression” value (CD11b)?
A: only partially potent

Q: What about the IC50 (C5aR1 [2]; read-out: IC50 (nM) 10 nM C5a, Gα signaling, 10 nM C5a, Table 13) of the same molecule?
A: 2.2 nM

Q: What about the IC50 (C5aR1 [2]; read-out: IC50 (nM) 100 nM C5a, Gα signaling, extrapolated data, 100 nM C5a, Table 13, extrapolated) of the same molecule?
A: 0.7 nM

Q: What about the “average reduction in neutrophil counts from baseline” value (squirrel monkeys) of the same molecule?
A: 59%

Q: For motavizumab [reference compound], which “EC50 of U937-C5aR1 binding” value (U937-C5aR1 cells) is on record?
A: No Binding

Q: What about the “EC50 of human neutrophil binding” value (human neutrophils) of the same molecule?
A: No Binding

Q: For PMX53 [reference compound], which “infarct volume compared to the vehicle group” value (tMCAO mice) is on record?
A: only slightly reduced infarct volume

B1: Isotype CTL: a motavizumab antibody with IgG4 Fc and same Fc modifications as the C5aR1 antibodies, used as a control (antibody, chains of the INN, looked up, V domains shown)
VH: QVTLRESGPALVKPTQTLTLTCTFSGFSLSTAGMSVGWIRQPPGKALEWLADIWWDDKKHYNPSLKDRLTISKDTSKNQVVLKVTNMDPADTATYYCARDMIFNFYFDVWGQGTTVTVSS
VL: DIQMTQSPSTLSASVGDRVTITCSASSRVGYMHWYQQKPGKAPKLLIYDTSKLASGVPSRFSGSGSGTEFTLTISSLQPDDFATYYCFQGSGYPFTFGGGTKVEIK
modifications: IgG4 Fc modifications
notes: a motavizumab antibody with IgG4 Fc and same Fc modifications as the C5aR1 antibodies, used as a control
Q: What does the source list for B1?
A: AUC0-24 ([3]; GeoMean): 1620 µg·h/mL; AUCinf ([3]; GeoMean): 16900 µg·h/mL; AUClast ([3]; GeoMean): 13100 µg·h/mL; CL ([3]; GeoMean): 7.08 mL/day/kg; Cmax ([3]; GeoMean): 131 µg/mL; V ([3]; GeoMean): 0.104 L/kg; t1/2 ([3]; Median): 259 h; tlast ([3]; Median): 504 h; AUC0-24 ([4]; GeoMean): 7130 µg·h/mL; AUCinf ([4]; GeoMean): 66200 µg·h/mL; AUClast ([4]; GeoMean): 55800 µg·h/mL; CL ([4]; GeoMean): 7.25 mL/day/kg; Cmax ([4]; GeoMean): 453 µg/mL; V ([4]; GeoMean): 0.06 L/kg; t1/2 ([4]; Median): 127 h; tlast ([4]; Median): 504 h

B2: c2139-e1711: biparatopic anti-C5aR1 antibody, VH1 SEQ ID NO: 14, VL1 SEQ ID NO: 25, VH2 SEQ ID NO: 16, VL2 SEQ ID NO: 17 (antibody, V domains shown)
VH 1: QVQLVQSGAEVKKPGASVKVSCKASGYTFTNYWMHWVRQAPGQGLEWMGYLNPSSGYTKYAQKFQGRVTMTRDTSTSTVYMELSSLRSEDTAVYYCTRSGGDNYGNPYYFDRWGQGTTVTVSS
VL 1: DVQMTQSPSSLSASVGDRVTITCRASQSIVHSNGNTYLHWYQQKPGKAPKFLIYKVSNRFSGVPSRFSGSGSGTDFTLTISSLQPEDFATYYCAQYTLVPLTFGQGTKLEIK
VH 2: EVQLVESGGGLIQPGGSLRLSCAASGFTFNAYAMSWVRQAPGKCLEWVSSISTGGNTYYADSVKGRFTISRDNSKNTLYLQMNSLRAEDTAVYYCTRGYQRFSGFAYWGQGTLVTVSS
VL 2: EIVLTQSPATLSLSPGERATLSCRSSQSLVHSNGNTYLNWYQQKPGQAPRLLIYKVSNRLSGIPARFSGSGSGTDFTLTISSLEPEDFAVYYCSQSTHVPYTFGCGTKLEIK
Q: With B2 as the molecule, how does the internalization (C5aR1 [5]) read?
A: undergoes internalization during association
